Data set [1] is described as follows: folding stability dG unfold from chymotrypsin proteolysis; higher = more stable. The essentials: (§1)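 Digests were run with trypsin and chymotrypsin at 11 concentrations in threefold dilutions, plus a no-protease condition, on designed mini-proteins in a PA-tagged cDNA display construct. The mini-proteins were under 80 residues, had no cysteine, and were kept only when AlphaFold2 dimer inter-PAE was above 15. After sequencing, Bayesian fitting of the counts gave K50, from which unfolding free energy was derived against a sequence-predicted unfolded-state K50 and a shared folded-state K50, per protease or combined.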

Data set [2] is described as follows: folding stability dG unfold (combined trypsin and chymotrypsin); higher = more stable. In outline: as §1
Data set [3] can be described thus: folding stability dG unfold from trypsin proteolysis; higher = more stable. The essentials:
as §1

± gives the half width of the 95% confidence interval.

Turning to “SAGAPGEVTVTVVRRPRVETEEERRRRRAPPPPVVTLTLKVPPGWVVRRVAFNADGEIVSVELYRRDDLSAG [r5_750_TrROS_Hall]”, the “folding stability dG unfold” value in data set [1] is 3.03 ± 0.031 kcal/mol; in data set [2], 2.54 ± 0.06 kcal/mol; in data set [3] it was 1.38 ± 0.029 kcal/mol.

Turning to “SAGAPSTREFEILELVPLPPGTTAEELRATLEREVELPDDSVARIRVRAVFLSPGPAFALVLYRVEVRESAG [r5_939_TrMRF]”, the “folding stability dG unfold” value was found to be 3.314 ± 0.015 kcal/mol in data set [1], 3.22 ± 0.12 kcal/mol in data set [2] and 3.15 ± 0.11 kcal/mol in data set [3].

As for “SAGASPGVRLTERSEEVIEVEPGEKEKLKEEIKKSEKKYPGGLTEKVEYEVDPNSNKVTITITTTTGLSAGG [r19_45_JUSTAS]”, the entries for the “folding stability dG unfold” value in data set [1], in data set [2] and in data set [3] were 0.664 ± 0.084 kcal/mol, 0.383 ± 0.33 kcal/mol and -0.351 ± 0.23 kcal/mol, respectively.

For the sequence “SAGDADEDPVLVVFVRTEERPLVVVRRVEPDEDPEEVAKELAAEIREKLGPDVEVFVEMVRREDAEKLFSAG [r5_583_TrMRF]”, the “folding stability dG unfold” value in data set [1] came to 2.44 ± 0.039 kcal/mol; in data set [2], 2.42 ± 0.11 kcal/mol; in data set [3], 2.27 ± 0.052 kcal/mol.

“SAGDALKDIFPGLEIEPHEKPVKVPPGKPVEFAFIIRMPDGEIMIFDMHFNPGGEVRVRVLTIKLPEKSAGG [r19_125_TrROS]”: the “folding stability dG unfold” value in data set [1] worked out at 4.81 ± 0.14 kcal/mol; in data set [2] it was 3.96 ± 0.27 kcal/mol; in data set [3], 2.88 ± 0.16 kcal/mol.

Take “SAGDDLKIKKVEIQINPEHGYISVTFRIDGYEVQIMYDVDPKNGPITMDIYYPGKPIGEFTIPLNDIKISAG [r5_415_TrROS]”: the “folding stability dG unfold” value came to 3.01 ± 0.05 kcal/mol in data set [1], 2.68 ± 0.1 kcal/mol in data set [2] and 1.78 ± 0.083 kcal/mol in data set [3].

For the sequence “SAGDEALLERIRARAEAEAKAAGPDPTPLDYRVEVEPVEIDEETGTVKVRVTITAPDREVEREVTVPLVSAG [r5_53_JUSTAS]”, the results for the “folding stability dG unfold” value in data set [1], in data set [2] and in data set [3] were -0.113 ± 0.096 kcal/mol, 0.0838 ± 0.088 kcal/mol and 0.315 ± 0.051 kcal/mol, respectively.

Take “SAGDKKTIELWFMFKTPEEARHEADSIARRLAEEGLTIKVELKDIEPMPDPDGEKYYMFEFKVTIQLPNSAG [r5_158_TrROS]”: the “folding stability dG unfold” value was determined as 3.28 ± 0.12 kcal/mol in data set [1], 3.06 ± 0.14 kcal/mol in data set [2] and 2.55 ± 0.062 kcal/mol in data set [3].

With “SAGDLAEYIAETLQDHFPNMEVEVEIDGVEDGYIVIDITIYFRDMKDNENKPRWVPWEIVIPPGEPLPSAGG [r19_8_TrROS]”, the “folding stability dG unfold” value in data set [1] is 4.09 ± 0.051 kcal/mol; in data set [2] it was 3.38 ± 0.19 kcal/mol; in data set [3] it was 2.36 ± 0.14 kcal/mol.

As for “SAGDMIKIPFNFKDPNGAKPKELEVMISPDPGVITAMFKYKHNNEPKYYMISIPIDPGNGKIEIEIQPMSAG [r5_136_TrROS]”, the “folding stability dG unfold” value in data set [1] is 1.65 ± 0.17 kcal/mol; in data set [2] it was 1.46 ± 0.12 kcal/mol; in data set [3], 1.2 ± 0.058 kcal/mol.

Turning to “SAGDNLKIDVEVEPAKVILGEFDENGKLIKPIEKDVLIVKVTVTFSNGKKLEIRATFFDGKLISVSSGSAGG [r19_44_TrMRF]”, the “folding stability dG unfold” value in data set [1] came to 5.26 ± 0.086 kcal/mol; in data set [2], 5.07 ± 0.19 kcal/mol; in data set [3] it was 3.56 ± 0.16 kcal/mol.

As for “SAGDNNKKPKYVYIPITINVPLPPGQTHEEAVDEVRLIMEELFPPGFKISEVKVHPEYNTVTVWIQIRSAGG [r19_81_TrROS]”, the entries for the “folding stability dG unfold” value in data set [1], in data set [2] and in data set [3] were 2.16 ± 0.044 kcal/mol, 2.22 ± 0.18 kcal/mol and 2.11 ± 0.089 kcal/mol, respectively.

Turning to “SAGDPDRPVVVVIHYVDPETGEPRVEVFPADRIERIEVSPDGVLRIHLPAYGLEIDFPLDVVDHVDIASAGG [r19_416_TrMRF]”, the “folding stability dG unfold” value in data set [1] turned out to be 2.17 ± 0.044 kcal/mol; in data set [2] it was 2.12 ± 0.027 kcal/mol; in data set [3] it was 1.99 ± 0.064 kcal/mol.

As to “SAGDPEVVAEAEFPFTFPLAKIEVRISVYPDGTARIEVTITFPAPGKGNPKKPIKLRFRFEIKLAPDALSAG [r5_224_TrMRF]”, the entries for the “folding stability dG unfold” value in data set [1], in data set [2] and in data set [3] were 5.3 ± 0.15 kcal/mol, 5.12 ± 0.36 kcal/mol and 3.8 ± 0.3 kcal/mol, respectively.

Take “SAGDVKIDIHYDEDGYIRVTVPYKSPHEAREEADELARWLAKQFGPKNIDINVEPHPNGMLVIRIPIKKSAG [r5_772_TrROS]”: the “folding stability dG unfold” value in data set [1] stood at 3.05 ± 0.082 kcal/mol; in data set [2], 2.62 ± 0.12 kcal/mol; in data set [3], 2.17 ± 0.099 kcal/mol.

Consider “SAGDVPVPATFEVELPGDGTARVTVVRHPGAAPGGFDTVRVEFRPGPTSSVTLTYRVPPGSAPVPFLGGSAG [r5_47_TrMRF]”, for which the entries for the “folding stability dG unfold” value in data set [1], in data set [2] and in data set [3] were 1.33 ± 0.31 kcal/mol, 0.965 ± 0.19 kcal/mol and 0.535 ± 0.16 kcal/mol, respectively.

On to “SAGEATVEKLEDGYVVVFKDGSVAFLPAVPPAVPVVEIPFKDPEEGRRAVEELGADVLDIGDDSIVVAGSAG [r5_328_TrMRF]”, for which the “folding stability dG unfold” value in data set [1] is 0.346 ± 0.033 kcal/mol; in data set [2] it was -0.01 ± 0.1 kcal/mol; in data set [3], -1.19 ± 0.16 kcal/mol.

For “SAGEEIEELAKKLADELREKYPELEVKVEVVEVTVKTTVVKDKETGKLYTKTEITVKLKVEVVPKEELSAGG [r19_293_TrROS_Hall]”, the “folding stability dG unfold” value in data set [1] amounted to 3.81 ± 0.21 kcal/mol; in data set [2], 3.08 ± 0.31 kcal/mol; in data set [3], 1.99 ± 0.23 kcal/mol.

The values are drawn from the supplement of paper PMC12764529.
